The values that follow come from patent US20090298196A1 (published 2009).

Ends that are not written are not given here.

Test [1] addresses T1, peptide of sequence no. 1 (GEPGDDAPS, amino acid nos. 757 to 765 of human type 2 collagen) (human, also: biotin-labeled in DELFIA screening, immunogen form had a C-terminal cysteine added).
T1 construct: also called biotin-labeled target antigen peptide
T1 peptide: GEPGDDAPS
As to the kind of experiment: characterisation of the antibody (peptide immunisation and DELFIA screening). As to the method:
(§1) The screening was done using the time-resolved fluorescence immunoassay (DELFIA, Amersham, registered trademark) described below. 50 μl measurement buffer solution (50 mM tris hydrochloric acid buffer solution (pH 7.5) containing 150 mM NaCl, 0.01% Tween80, 0.5% BSA and 0.05% NaN₃), 50 μl culture supernatant and 50 μl labeled antigen (measurement buffer solution containing 20 ng/ml biotin-labeled target antigen peptide and 100 ng/ml europium-labeled streptoavidine (manufactured by Perkin-Elmer Life Science)) were consecutively added to microtiter plates (manufactured by Sumitomo Bakelite) with solidified anti-mouse IgG antibodies (manufactured by Shibayagi), and a reaction was conducted at 4° C. for 16 hours. After washing the plates twice using 200 μl washing solution (150 mM NaCl, 0.02% NaN₃ and 0.01% Tween20), 150 μl enhancement solution (manufactured by Perkin-Elmer Life Science) were added, and the time-resolved fluorescence was measured using 1420ARVOsx Multilabel Counter (manufactured by Perkin-Elmer Life Science). One well with high reactivity was selected by means of this screening, cloning was repeated twice using the limiting dilution method, and the presence of antibody-producing hybridoma TAG-6G4 was established. […]

Test [2] concerns the target T2, peptide of sequence no. 2 (GPPGPQG, amino acid nos. 769 to 775 of human type 2 collagen) (human, also: immunogen form had an N-terminal cysteine added).
T2 peptide: GPPGPQG
The description is as above. As to the method: as §1

B1: 6G4 antibody (monoclonal antibody produced by hybridoma TAG-6G4) (antibody, mouse IgG1, V domains shown)
VH: EVQLVESGGSLVQPGGSLKLSCAASGFTFNNYGMSWVRQIPDKRLELVATITGNGHSTYYPVSVRGRFTISRDNAKNTLYLQMSSLKSEDTAMYYCVRGYSNFAFWGQGTTLTVSS
VL: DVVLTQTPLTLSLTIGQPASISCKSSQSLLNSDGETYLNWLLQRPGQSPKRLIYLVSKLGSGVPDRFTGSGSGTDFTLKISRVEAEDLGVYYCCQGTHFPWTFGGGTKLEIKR
notes: Mouse IgG1(k), 150 kDa, H chain 50 kDa and L chain 27 kDa; It was labeled with europium cryptate for the HTRF assay; also called 6G4 antibodies; cryptate-labeled 6G4 antibodies
With B1, in test [1], the binding result is on record as “binds”.

B2: 2E6 antibody (monoclonal antibody produced by hybridoma TAG-2E6) (antibody, V domains shown)
VH: QVTLKESGPGILQPSQTLSLTCSFSGFSLSTYGMGVGWIRQPSGKGLEWLAHIWWNDNKYYNTTLKSRLTISKDTSNKQVFLKIASVDTADTATYYCARIERWDPWFAYWGQGTLVTVSA
VL: DVVMTQTPLSLPVSLGDQASISCRSSQSLVYSNGNTYFHWYLQKPGQSPKLLIYKVSNRFSGVPDRFSGSGSGTDFTLKISRVEAEDLGVYFCSQSTHVPLTFGAGTKLELKR
notes: Mouse IgG2b(k), 150 kDa, H chain 50 kDa and L chain 27 kDa; It was labeled with XL665 for the HTRF assay and immobilised on a carrier column for purification; also called 2E6 antibodies; XL665-labeled 2E6 antibodies
B2: in test [2], the binding result is on record as “binds”.
